Each binder was assayed against T1, EsCas13d, nuclease-dead (Eubacterium siraeum, UniProt B0MS50, R295A;H300A;R849A;H854A) (assay: crRNA (strand 1, pre-loaded); Mg2+; 40 mM Tris-HCl pH 7.5, 150 mM NaCl, 6 mM MgCl2, 1 mM DTT, 0.1% Tween-20, 0.2 mg/ml BSA; 25 C; 10 min per concentration, then washed). Conditions: tags: His6-TwinStrep-SUMO cleaved; N-terminal SNAP kept (SNAP-Surface 488); label: 3' end held by stalled T7 RNA polymerase.
T1 sequence: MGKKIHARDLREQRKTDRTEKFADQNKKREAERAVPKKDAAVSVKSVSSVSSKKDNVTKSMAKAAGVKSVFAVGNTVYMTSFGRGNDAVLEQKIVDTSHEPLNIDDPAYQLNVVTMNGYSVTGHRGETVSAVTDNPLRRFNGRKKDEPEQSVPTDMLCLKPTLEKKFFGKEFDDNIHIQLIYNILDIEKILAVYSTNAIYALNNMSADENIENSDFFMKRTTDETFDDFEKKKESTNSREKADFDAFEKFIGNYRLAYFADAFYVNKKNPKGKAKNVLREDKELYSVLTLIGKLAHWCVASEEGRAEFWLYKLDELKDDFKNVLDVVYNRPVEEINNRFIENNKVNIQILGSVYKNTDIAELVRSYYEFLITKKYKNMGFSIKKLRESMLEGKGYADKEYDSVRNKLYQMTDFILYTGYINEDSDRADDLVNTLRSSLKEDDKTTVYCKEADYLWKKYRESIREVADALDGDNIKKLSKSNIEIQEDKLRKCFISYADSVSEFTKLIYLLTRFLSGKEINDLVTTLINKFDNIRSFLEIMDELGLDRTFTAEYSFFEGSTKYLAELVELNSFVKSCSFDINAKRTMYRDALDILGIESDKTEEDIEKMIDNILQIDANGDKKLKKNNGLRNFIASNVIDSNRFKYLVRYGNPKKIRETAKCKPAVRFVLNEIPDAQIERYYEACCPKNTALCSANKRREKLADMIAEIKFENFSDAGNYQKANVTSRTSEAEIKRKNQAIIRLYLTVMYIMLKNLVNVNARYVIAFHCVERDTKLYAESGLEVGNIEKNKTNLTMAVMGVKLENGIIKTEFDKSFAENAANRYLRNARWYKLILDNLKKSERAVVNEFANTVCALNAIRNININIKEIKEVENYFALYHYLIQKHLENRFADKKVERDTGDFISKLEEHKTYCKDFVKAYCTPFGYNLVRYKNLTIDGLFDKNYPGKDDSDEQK

| Binder | Kd [nM] |
| --- | --- |
| target 2 MT 5'PFS CAC 3'PFS CAU (mixed) RNA 1: CACCCGUGCAAAAUUGCAGGGGUCUAAAACCUUCUCCAAAUUGUUUCAUCCU RNA 2: GGGAAUGGAUCCACAUCUACGAAUUCCACAGGAUGAAACAAUUUGGAGAAGCAUAGAUCGGAAGAGCACACGU | 3.5 ± 0.4 |
| target 2 MT 5'PFS UUG 3'PFS UAU (mixed) RNA 1: CACCCGUGCAAAAUUGCAGGGGUCUAAAACCUUCUCCAAAUUGUUUCAUCCU RNA 2: GGGAAUGGAUCCACAUCUACGAAUUCUUGAGGAUGAAACAAUUUGGAGAAGUAUAGAUCGGAAGAGCACACGU | 8.6 ± 0.8 |
| target 2 MT 5'PFS GAA 3'PFS UAA (mixed) RNA 1: CACCCGUGCAAAAUUGCAGGGGUCUAAAACCUUCUCCAAAUUGUUUCAUCCU RNA 2: GGGAAUGGAUCCACAUCUACGAAUUCGAAAGGAUGAAACAAUUUGGAGAAGUAAAGAUCGGAAGAGCACACGU | 7.3 ± 1.5 |
| target 2 MT 5'PFS GAA 3'PFS UAC (mixed) RNA 1: CACCCGUGCAAAAUUGCAGGGGUCUAAAACCUUCUCCAAAUUGUUUCAUCCU RNA 2: GGGAAUGGAUCCACAUCUACGAAUUCGAAAGGAUGAAACAAUUUGGAGAAGUACAGAUCGGAAGAGCACACGU | 12 ± 4 |
| target 2 MT 5'PFS UUG 3'PFS UAC (mixed) RNA 1: CACCCGUGCAAAAUUGCAGGGGUCUAAAACCUUCUCCAAAUUGUUUCAUCCU RNA 2: GGGAAUGGAUCCACAUCUACGAAUUCUUGAGGAUGAAACAAUUUGGAGAAGUACAGAUCGGAAGAGCACACGU | 14.3 ± 1.2 |
| target 2 MT 5'PFS UUG 3'PFS UAA (mixed) RNA 1: CACCCGUGCAAAAUUGCAGGGGUCUAAAACCUUCUCCAAAUUGUUUCAUCCU RNA 2: GGGAAUGGAUCCACAUCUACGAAUUCUUGAGGAUGAAACAAUUUGGAGAAGUAAAGAUCGGAAGAGCACACGU | 12.8 ± 2 |
| target 2 MT 5'PFS UUG 3'PFS UAG (mixed) RNA 1: CACCCGUGCAAAAUUGCAGGGGUCUAAAACCUUCUCCAAAUUGUUUCAUCCU RNA 2: GGGAAUGGAUCCACAUCUACGAAUUCUUGAGGAUGAAACAAUUUGGAGAAGUAGAGAUCGGAAGAGCACACGU | 10.9 ± 1.2 |
| target 2 MT 5'PFS CAU 3'PFS AGG (mixed) RNA 1: CACCCGUGCAAAAUUGCAGGGGUCUAAAACCUUCUCCAAAUUGUUUCAUCCU RNA 2: GGGAAUGGAUCCACAUCUACGAAUUCCAUAGGAUGAAACAAUUUGGAGAAGAGGAGAUCGGAAGAGCACACGU | 2.8 ± 0.4 |
| target 2 MT 5'PFS GAA 3'PFS UAU (mixed) RNA 1: CACCCGUGCAAAAUUGCAGGGGUCUAAAACCUUCUCCAAAUUGUUUCAUCCU RNA 2: GGGAAUGGAUCCACAUCUACGAAUUCGAAAGGAUGAAACAAUUUGGAGAAGUAUAGAUCGGAAGAGCACACGU | 7.8 ± 1 |
| target 2 MT 5'PFS CAG 3'PFS UCC (mixed) RNA 1: CACCCGUGCAAAAUUGCAGGGGUCUAAAACCUUCUCCAAAUUGUUUCAUCCU RNA 2: GGGAAUGGAUCCACAUCUACGAAUUCCAGAGGAUGAAACAAUUUGGAGAAGUCCAGAUCGGAAGAGCACACGU | 29 ± 8 |
| target 1 C7A,A18C (mixed) RNA 1: CACCCGUGCAAAAAUGCAGGGGUCUAAAACUGAGCGGAUAACCUCUCUAUGG RNA 2: GGGAAUGGAUCCACAUCUACGAAUUCGUACCAUCGAGAGGUUAUACGCUCACCGAGAUCGGAAGAGCACACGU | 70 ± 6 |
| target 2 MT 5'PFS ACA 3'PFS CUC (mixed) RNA 1: CACCCGUGCAAAAUUGCAGGGGUCUAAAACCUUCUCCAAAUUGUUUCAUCCU RNA 2: GGGAAUGGAUCCACAUCUACGAAUUCACAAGGAUGAAACAAUUUGGAGAAGCUCAGAUCGGAAGAGCACACGU | 6.7 ± 1 |
| target 2 MT 5'PFS GGG 3'PFS AUU (mixed) RNA 1: CACCCGUGCAAAAUUGCAGGGGUCUAAAACCUUCUCCAAAUUGUUUCAUCCU RNA 2: GGGAAUGGAUCCACAUCUACGAAUUCGGGAGGAUGAAACAAUUUGGAGAAGAUUAGAUCGGAAGAGCACACGU | 9 ± 0.8 |
| target 2 MT 5'PFS ACA 3'PFS CUU (mixed) RNA 1: CACCCGUGCAAAAUUGCAGGGGUCUAAAACCUUCUCCAAAUUGUUUCAUCCU RNA 2: GGGAAUGGAUCCACAUCUACGAAUUCACAAGGAUGAAACAAUUUGGAGAAGCUUAGAUCGGAAGAGCACACGU | 12 ± 4 |
| target 2 MT 5'PFS GGG 3'PFS AUC (mixed) RNA 1: CACCCGUGCAAAAUUGCAGGGGUCUAAAACCUUCUCCAAAUUGUUUCAUCCU RNA 2: GGGAAUGGAUCCACAUCUACGAAUUCGGGAGGAUGAAACAAUUUGGAGAAGAUCAGAUCGGAAGAGCACACGU | 8.5 ± 0.8 |
| target 2 MT 5'PFS GGG 3'PFS AUA (mixed) RNA 1: CACCCGUGCAAAAUUGCAGGGGUCUAAAACCUUCUCCAAAUUGUUUCAUCCU RNA 2: GGGAAUGGAUCCACAUCUACGAAUUCGGGAGGAUGAAACAAUUUGGAGAAGAUAAGAUCGGAAGAGCACACGU | 7.1 ± 0.5 |
| target 2 MT 5'PFS GGG 3'PFS AUG (mixed) RNA 1: CACCCGUGCAAAAUUGCAGGGGUCUAAAACCUUCUCCAAAUUGUUUCAUCCU RNA 2: GGGAAUGGAUCCACAUCUACGAAUUCGGGAGGAUGAAACAAUUUGGAGAAGAUGAGAUCGGAAGAGCACACGU | 9.2 ± 0.6 |
| target 2 MT 5'PFS AAG 3'PFS CGA (mixed) RNA 1: CACCCGUGCAAAAUUGCAGGGGUCUAAAACCUUCUCCAAAUUGUUUCAUCCU RNA 2: GGGAAUGGAUCCACAUCUACGAAUUCAAGAGGAUGAAACAAUUUGGAGAAGCGAAGAUCGGAAGAGCACACGU | 4.5 ± 0.5 |
| target 2 MT 5'PFS AAG 3'PFS CGC (mixed) RNA 1: CACCCGUGCAAAAUUGCAGGGGUCUAAAACCUUCUCCAAAUUGUUUCAUCCU RNA 2: GGGAAUGGAUCCACAUCUACGAAUUCAAGAGGAUGAAACAAUUUGGAGAAGCGCAGAUCGGAAGAGCACACGU | 3.34 ± 0.31 |
| target 2 MT 5'PFS AAG 3'PFS CGG (mixed) RNA 1: CACCCGUGCAAAAUUGCAGGGGUCUAAAACCUUCUCCAAAUUGUUUCAUCCU RNA 2: GGGAAUGGAUCCACAUCUACGAAUUCAAGAGGAUGAAACAAUUUGGAGAAGCGGAGAUCGGAAGAGCACACGU | 3.4 ± 0.5 |
| target 2 MT 5'PFS AAG 3'PFS AGG (mixed) RNA 1: CACCCGUGCAAAAUUGCAGGGGUCUAAAACCUUCUCCAAAUUGUUUCAUCCU RNA 2: GGGAAUGGAUCCACAUCUACGAAUUCAAGAGGAUGAAACAAUUUGGAGAAGAGGAGAUCGGAAGAGCACACGU | 5.7 ± 1 |
| target 1 insU 3' of 15,insA 3' of 8 (mixed) RNA 1: CACCCGUGCAAAAAUGCAGGGGUCUAAAACUGAGCGGAUAACCUCUCUAUGG RNA 2: GGGAAUGGAUCCACAUCUACGAAUUCGUACCAUAGAGUAGGUUAUACCGCUCACCGAGAUCGGAAGAGCACACGU | 16.8 ± 2 |
| target 2 MT 5'PFS AAG 3'PFS AGC (mixed) RNA 1: CACCCGUGCAAAAUUGCAGGGGUCUAAAACCUUCUCCAAAUUGUUUCAUCCU RNA 2: GGGAAUGGAUCCACAUCUACGAAUUCAAGAGGAUGAAACAAUUUGGAGAAGAGCAGAUCGGAAGAGCACACGU | 3.7 ± 0.4 |
| target 2 MT 5'PFS AAG 3'PFS AGA (mixed) RNA 1: CACCCGUGCAAAAUUGCAGGGGUCUAAAACCUUCUCCAAAUUGUUUCAUCCU RNA 2: GGGAAUGGAUCCACAUCUACGAAUUCAAGAGGAUGAAACAAUUUGGAGAAGAGAAGAUCGGAAGAGCACACGU | 2.5 ± 0.28 |
